Assay results taken from PMC10533390, “The interface of condensates of the hnRNPA1 low-complexity domain promotes formation of amyloid fibrils” (Nature Chemistry, 2023).

Target: the molecule itself
Assay: ThT fluorescence kinetics + AFM + TEM + Raman spectroscopy (amyloid fibril formation); self-association into amyloid fibrils starting from condensates; 30 µM protein in 50 mM Tris pH 7.5, 200 mM NaCl, 2 mM β-mercaptoethanol, 20 µM ThT, 384-well plates; re-scan confocal images after ~70 h

Row | Protein | binding result
1 | hnRNPA1-A low-complexity domain (domain or fragment, UniProt P09651 186-250, looked up, 15.2 kDa; The two stretches joined are the natural splice variant; also called A-LCD; hnRNPA1–A-LCD; source: E. coli BL21-Gold (DE3), purified (Ni-NTA, SEC on Superdex 75 in 8 M urea)) MASASSSQRGRSGSGNFGGGRGGGFGGNDNFGRGGNFSGRGGFGGSRGGGGYGGSGDGYNGFGNDGSNFGGGGSYNDFGNYNNQSSNFGPMKGGNFGGRSSGPYGGGGQYFAKPRNQGGYGGSSSSSSYGSGRRF | binds
2 | hnRNPA1-B low-complexity domain (domain or fragment, UniProt P09651 186-372, looked up, C-terminal low-complexity domain of heterogeneous nuclear ribonucleoprotein A1, splicing variant hnRNPA1-B (52 amino acids more than hnRNPA1-A); 19.8 kDa; also called B-LCD; hnRNPA1–B-LCD; source: E. coli BL21-Gold (DE3), purified (Ni-NTA, SEC on Superdex 75 in 2 M urea)) MASASSSQRGRSGSGNFGGGRGGGFGGNDNFGRGGNFSGRGGFGGSRGGGGYGGSGDGYNGFGNDGGYGGGGPGYSGGSRGYGSGGQGYGNQGSGYGGSGSYDSYNNGGGGGFGGGSGSNFGGGGSYNDFGNYNNQSSNFGPMKGGNFGGRSSGPYGGGGQYFAKPRNQGGYGGSSSSSSYGSGRRF | binds
